Source: the supplement of paper PMC5998384

What was measured:
HeLa Kyoto [1] = test: solubility in G1/S (NP-40 vs SDS abundance) (log2 ratio); higher = more soluble; conditions: cell cycle stage: G1/S
HeLa Kyoto [2] = test: melting temperature (median over replicates), in situ; higher = more thermally stable
HeLa Kyoto [3] = test: thermal stability score vs G1/S (z-score of summed log2 fold changes over temperatures); higher = more thermally stable than in G1/S
HeLa Kyoto [4] = test: solubility change mitosis vs G1/S (difference of NP-40 vs SDS log2 ratios) (log2 ratio difference); higher = more soluble in mitosis
[5] = cell cycle stage: early G1 (4.5 h after nocodazole release)
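Throughout, for melting temperature (median over replicates), in situ: HeLa Kyoto cells synchronized by double thymidine or nocodazole block, proteins quantified by TMT10plex mass spectrometry, three independent biological replicates.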
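Throughout, for solubility change mitosis vs G1/S (difference of NP-40 vs SDS log2 ratios): synchronized HeLa Kyoto cells (double thymidine block for G1/S, nocodazole release for mitosis), protein amounts in NP-40 versus SDS lysates quantified by mass spectrometry, three biological replicates.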
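Throughout, for solubility in G1/S (NP-40 vs SDS abundance): HeLa Kyoto cells arrested at G1/S by double thymidine block, proteins quantified by TMT10plex mass spectrometry in mild NP-40 versus SDS extracts, three biological replicates.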
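Throughout, for thermal stability score vs G1/S (z-score of summed log2 fold changes over temperatures): synchronized HeLa Kyoto cells, proteins quantified by TMT10plex mass spectrometry, three biological replicates, mitosis taken 0.5 h after nocodazole release, G1/S directly after double thymidine block.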

Sequence	solubility in G1/S (log2) (HeLa Kyoto [1])	melting temperature (HeLa Kyoto [2]; cell cycle stage: G1/S)	melting temperature (HeLa Kyoto [2]; cell cycle stage: mitosis)	thermal stability score (HeLa Kyoto [3]; [5])	thermal stability score (HeLa Kyoto [3]; cell cycle stage: mitosis)	solubility change mitosis (log2) (HeLa Kyoto [4])
MATSNLLKNKGSLQFEDKWDFMRPIVLKLLRQESVTKQQWFDLFSDVHAVCLWDDKGPAKIHQALKEDILEFIKQAQARVLSHQDDTALLKAYIVEWRKFFTQCDILPKPFCQLEITLMGKQGSNKKSNVEDSIVRKLMLDTWNESIFSNIKNRLQDSAMKLVHAERLGEAFDSQLVIGVRESYVNLCSNPEDKLQIYRDNFEKAYLDSTERFYRTQAPSYLQQNGVQNYMKYADAKLKEEEKRALRYLETRRECNSVEALMECCVNALVTSFKETILAECQGMIKRNETEKLHLMFSLMDKVPNGIEPMLKDLEEHIISAGLADMVAAAETITTDSEKYVEQLLTLFNRFSKLVKEAFQDDPRFLTARDKAYKAVVNDATIFKLELPLKQKGVGLKTQPESKCPELLANYCDMLLRKTPLSKKLTSEEIEAKLKEVLLVLKYVQNKDVFMRYHKAHLTRRLILDISADSEIEENMVEWLREVGMPADYVNKLARMFQDIKVSEDLNQAFKEMHKNNKLALPADSVNIKILNAGAWSRSSEKVFVSLPTELEDLIPEVEEFYKKNHSGRKLHWHHLMSNGIITFKNEVGQYDLEVTTFQLAVLFAWNQRPREKISFENLKLATELPDAELRRTLWSLVAFPKLKRQVLLYEPQVNSPKDFTEGTLFSVNQEFSLIKNAKVQKRGKINLIGRLQLTTERMREEENEGIVQLRILRTQEAIIQIMKMRKKISNAQLQTELVEILKNMFLPQKKMIKEQIEWLIEHKYIRRDESDINTFIYMA [CUL5]	-0.152	55.6 °C	54 °C	-0.282	-0.5	-0.233
MATYTCITCRVAFRDADMQRAHYKTDWHRYNLRRKVASMAPVTAEGFQERVRAQRAVAEEESKGSATYCTVCSKKFASFNAYENHLKSRRHVELEKKAVQAVNRKVEMMNEKNLEKGLGVDSVDKDAMNAAIQQAIKAQPSMSPKKAPPAPAKEARNVVAVGTGGRGTHDRDPSEKPPRLQWFEQQAKKLAKQQEEDSEEEEEDLDGDDWEDIDSDEELECEDTEAMDDVVEQDAEEEEAEEGPPLGAIPITDCLFCSHHSSSLMKNVAHMTKDHSFFIPDIEYLSDIKGLIKYLGEKVGVGKICLWCNEKGKSFYSTEAVQAHMNDKSHCKLFTDGDAALEFADFYDFRSSYPDHKEGEDPNKAEELPSEKNLEYDDETMELILPSGARVGHRSLMRYYKQRFGLSRAVAVAKNRKAVGRVLQQYRALGWTGSTGAALMRERDMQYVQRMKSKWMLKTGMKNNATKQMHFRVQVRF [ZNF622]	-0.924	53.3 °C	53.7 °C	-2.54	-0.435	0.0193
MAVAAAAAAAGPAGAGGGRAQRSGLLEVLVRDRWHKVLVNLSEDALVLSSEEGAAAYNGIGTATNGSFCRGAGAGHPGAGGAQPPDSPAGVRTAFTDLPEQVPESISNQKRGVKVLKQELGGLGISIKGGKENKMPILISKIFKGLAADQTQALYVGDAILSVNGADLRDATHDEAVQALKRAGKEVLLEVKYMREATPYVKKGSPVSEIGWETPPPESPRLGGSTSDPPSSQSFSFHRDRKSIPLKMCYVTRSMALADPENRQLEIHSPDAKHTVILRSKDSATAQAWFSAIHSNVNDLLTRVIAEVREQLGKTGIAGSREIRHLGWLAEKVPGESKKQWKPALVVLTEKDLLIYDSMPRRKEAWFSPVHTYPLLATRLVHSGPGKGSPQAGVDLSFATRTGTRQGIETHLFRAETSRDLSHWTRSIVQGCHNSAELIAEISTACTYKNQECRLTIHYENGFSITTEPQEGAFPKTIIQSPYEKLKMSSDDGIRMLYLDFGGKDGEIQLDLHSCPKPIVFIIHSFLSAKITRLGLVA [SNTB1]	0.0289	49.9 °C	50.2 °C	0.836	0.333	0.0627
MAVAGAVSGEPLVHWCTQQLRKTFGLDVSEEIIQYVLSIESAEEIREYVTDLLQGNEGKKGQFIEELITKWQKNDQELISDPLQQCFKKDEILDGQKSGDHLKRGRKKGRNRQEVPAFTEPDTTAEVKTPFDLAKAQENSNSVKKKTKFVNLYTREGQDRLAVLLPGRHPCDCLGQKHKLINNCLICGRIVCEQEGSGPCLFCGTLVCTHEEQDILQRDSNKSQKLLKKLMSGVENSGKVDISTKDLLPHQELRIKSGLEKAIKHKDKLLEFDRTSIRRTQVIDDESDYFASDSNQWLSKLERETLQKREEELRELRHASRLSKKVTIDFAGRKILEEENSLAEYHSRLDETIQAIANGTLNQPLTKLDRSSEEPLGVLVNPNMYQSPPQWVDHTGAASQKKAFRSSGFGLEFNSFQHQLRIQDQEFQEGFDGGWCLSVHQPWASLLVRGIKRVEGRSWYTPHRGRLWIAATAKKPSPQEVSELQATYRLLRGKDVEFPNDYPSGCLLGCVDLIDCLSQKQFKEQFPDISQESDSPFVFICKNPQEMVVKFPIKGNPKIWKLDSKIHQGAKKGLMKQNKAV [TRIP4]	-0.111	50.6 °C	49.4 °C	1.04	0.759	-0.0219
MAVATAAAVLAALGGALWLAARRFVGPRVQRLRRGGDPGLMHGKTVLITGANSGLGRATAAELLRLGARVIMGCRDRARAEEAAGQLRRELRQAAECGPEPGVSGVGELIVRELDLASLRSVRAFCQEMLQEEPRLDVLINNAGIFQCPYMKTEDGFEMQFGVNHLGHFLLTNLLLGLLKSSAPSRIVVVSSKLYKYGDINFDDLNSEQSYNKSFCYSRSKLANILFTRELARRLEGTNVTVNVLHPGIVRTNLGRHIHIPLLVKPLFNLVSWAFFKTPVEGAQTSIYLASSPEVEGVSGRYFGDCKEEELLPKAMDESVARKLWDISEVMVGLLK [RDH14]	-0.158	51.8 °C	51.6 °C	0.98	0.294	0.0299
MAVESRVTQEEIKKEPEKPIDREKTCPLLLRVFTTNNGRHHRMDEFSRGNVPSSELQIYTWMDATLKELTSLVKEVYPEARKKGTHFNFAIVFTDVKRPGYRVKEIGSTMSGRKGTDDSMTLQSQKFQIGDYLDIAITPPNRAPPPSGRMRPY [SAP18]	-0.67	47.5 °C	49.7 °C	0.467	3.26	0.699
MAVETLSPDWEFDRVDDGSQKIHAEVQLKNYGKFLEEYTSQLRRIEDALDDSIGDVWDFNLDPIALKLLPYEQSSLLELIKTENKVLNKVITVYAALCCEIKKLKYEAETKFYNGLLFYGEGATDASMVEGDCQIQMGRFISFLQELSCFVTRCYEVVMNVVHQLAALYISNKIAPKIIETTGVHFQTMYEHLGELLTVLLTLDEIIDNHITLKDHWTMYKRLLKSVHHNPSKFGIQEEKLKPFEKFLLKLEGQLLDGMIFQACIEQQFDSLNGGVSVSKNSTFAEEFAHSIRSIFANVEAKLGEPSEIDQRDKYVGICGLFVLHFQIFRTIDKKFYKSLLDICKKVPAITLTANIIWFPDNFLIQKIPAAAKLLDRKSLQAIKIHRDTFLQQKAQSLTKDVQSYYVFVSSWMMKMESILSKEQRMDKFAEDLTNRCNVFIQGFLYAYSISTIIKTTMNLYMSMQKPMTKTSVKALCRLVELLKAIEHMFYRRSMVVADSVSHITQHLQHQALHSISVAKKRVISDKKYSEQRLDVLSALVLAENTLNGPSTKQRRLIVSLALSVGTQMKTFKDEELFPLQVVMKKLDLISELRERVQTQCDCCFLYWHRAVFPIYLDDVYENAVDAARLHYMFSALRDCVPAMMHARHLESYEILLDCYDKEIMEILNEHLLDKLCKEIEKDLRLSVHTHLKLDDRNPFKVGMKDLALFFSLNPIRFFNRFIDIRAYVTHYLDKTFYNLTTVALHDWATYSEMRNLATQRYGLVMTEAHLPSQTLEQGLDVLEIMRNIHIFVSRYLYNLNNQIFIERTSNNKHLNTINIRHIANSIRTHGTGIMNTTVNFTYQFLKKKFYIFSQFMYDEHIKSRLIKDIRFFREIKDQNDHKYPFDRAEKFNRGIRKLGVTPEGQSYLDQFRQLISQIGNAMGYVRMIRSGGLHCSSNAIRFVPDLEDIVNFEELVKEEGLAEETLKAARHLDSVLSDHTRNSAEGTEYFKMLVDVFAPEFRRPKNIHLRNFYIIVPPLTLNFVEHSISCKEKLNKKNKIGAAFTDDGFAMGVAYILKLLDQYREFDSLHWFQSVREKYLKEIRAVAKQQNVQSASQDEKLLQTMNLTQKRLDVYLQEFELLYFSLSSARIFFRADKTAAEENQEKKEKEEETKTSNGDLSDSTVSADPVVK [KIAA1033]	-0.393	49.7 °C	49.7 °C	0.475	0.963	-0.0953
MAVFRSGLLVLTTPLASLAPRLASILTSAARLVNHTLYVHLQPGMSLEGPAQPQSSPVQATFEVLDFITHLYAGADVHRHLDVRILLTNIRTKSTFLPPLPTSVQNLAHPPEVVLTDFQTLDGSQYNPVKQQLVRYATSCYSCCPRLASVLLYSDYGIGEVPVEPLDVPLPSTIRPASPVAGSPKQPVRGYYRGAVGGTFDRLHNAHKVLLSVACILAQEQLVVGVADKDLLKSKLLPELLQPYTERVEHLSEFLVDIKPSLTFDVIPLLDPYGPAGSDPSLEFLVVSEETYRGGMAINRFRLENDLEELALYQIQLLKDLRHTENEEDKVSSSSFRQRMLGNLLRPPYERPELPTCLYVIGLTGISGSGKSSIAQRLKGLGAFVIDSDHLGHRAYAPGGPAYQPVVEAFGTDILHKDGIINRKVLGSRVFGNKKQLKILTDIMWPIIAKLAREEMDRAVAEGKRVCVIDAAVLLEAGWQNLVHEVWTAVIPETEAVRRIVERDGLSEAAAQSRLQSQMSGQQLVEQSHVVLSTLWEPHITQRQVEKAWALLQKRIPKTHQALD [COASY]	0.236	48.1 °C	48.8 °C	2.77	4.34	-0.14
MAVLAALLRSGARSRSPLLRRLVQEIRYVERSYVSKPTLKEVVIVSATRTPIGSFLGSLSLLPATKLGSIAIQGAIEKAGIPKEEVKEAYMGNVLQGGEGQAPTRQAVLGAGLPISTPCTTINKVCASGMKAIMMASQSLMCGHQDVMVAGGMESMSNVPYVMNRGSTPYGGVKLEDLIVKDGLTDVYNKIHMGSCAENTAKKLNIARNEQDAYAINSYTRSKAAWEAGKFGNEVIPVTVTVKGQPDVVVKEDEEYKRVDFSKVPKLKTVFQKENGTVTAANASTLNDGAAALVLMTADAAKRLNVTPLARIVAFADAAVEPIDFPIAPVYAASMVLKDVGLKKEDIAMWEVNEAFSLVVLANIKMLEIDPQKVNINGGAVSLGHPIGMSGARIVGHLTHALKQGEYGLASICNGGGGASAMLIQKL [ACAT1]	0.493	54.5 °C	54.8 °C	-1.2	0.833	-0.0153
